The assay addresses T1, human CXADR Fc chimera protein (CAR) (human, UniProt P78310).
T1 construct: also called coxsackievirus and adenovirus receptor; source: bought: R&D Systems
T1 sequence: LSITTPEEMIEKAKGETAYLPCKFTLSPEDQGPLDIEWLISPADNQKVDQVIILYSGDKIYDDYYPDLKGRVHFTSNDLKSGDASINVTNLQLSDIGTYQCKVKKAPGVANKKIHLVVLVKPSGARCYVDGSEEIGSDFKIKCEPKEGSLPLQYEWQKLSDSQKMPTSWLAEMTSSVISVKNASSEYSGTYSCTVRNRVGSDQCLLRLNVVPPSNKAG
Briefly: SPR; BIAcore 3000; DSG2-Fc, CAR-Fc and CD46-His (approximately 500 RU) coupled to a CM5 chip; knob protein injected (178 uM, 5x 1:3 dilutions; single-cycle kinetics from 200 uM); 30 uL/min, PBS, 25 °C; equilibrium KD assuming 1:1 Langmuir binding. The settings on record: both partners purified. Background: Surface plasmon resonance follows binding to a sensor surface in real time, without labels.

B1: HAdV-C5 fiber knob protein (domain or fragment)
chain: KNNDKLTLWTTPAPSPNCRLNAEKDAKLTLVLTKCGSQILATVSVLAVKGSLAPISGTVQSAHLIIRFDENGVLLNNSFLDPEYWNFRNGDLTEGTAYTNAVGFMPNLSAYPKSHGKTAKSNIVSQVYLNGDKTKPVTLTITLNGTQETGDTTPSAYSMSFSWDWSGHNYINEIFATSSYTFSYIAQE
notes: source: supplemental methods
A word on the Kd: it is the constant that tells how readily two partners part at equilibrium. Read a high Kd as weaker binding. Regarding B1, the Kd amounted to 760 pM.

Values taken from publication PMC8971729 (Molecular Therapy Oncolytics, 2022).
